Data as given in patent US20140213531A1 (POLYPHOR, published 2014).
Bridges are numbered along the chain shown (N, C = ends). [ ]: non-standard residue; d: D form. AlloThr = allo threonine

T1: CathepsinG, from human neutrophils (human, UniProt P08311 21-244)
T1 sequence (looked up): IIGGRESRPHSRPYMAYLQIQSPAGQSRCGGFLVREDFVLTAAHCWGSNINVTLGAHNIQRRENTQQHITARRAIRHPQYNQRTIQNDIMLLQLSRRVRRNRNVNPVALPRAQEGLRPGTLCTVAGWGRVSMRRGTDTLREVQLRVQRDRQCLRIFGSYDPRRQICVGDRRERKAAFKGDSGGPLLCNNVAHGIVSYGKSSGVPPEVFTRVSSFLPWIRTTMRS

T2: Elastase from human neutrophils (human, UniProt P08246 30-247, limits assumed)
T2 sequence (looked up): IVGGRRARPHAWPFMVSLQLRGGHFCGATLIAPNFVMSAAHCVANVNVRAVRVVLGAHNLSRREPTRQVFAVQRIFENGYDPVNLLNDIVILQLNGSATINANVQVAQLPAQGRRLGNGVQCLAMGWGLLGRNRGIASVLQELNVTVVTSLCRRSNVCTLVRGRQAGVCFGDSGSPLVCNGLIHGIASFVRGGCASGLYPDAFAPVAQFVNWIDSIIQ

T3: Chymase, from human skin (human, UniProt P23946 22-247)
T3 sequence (looked up): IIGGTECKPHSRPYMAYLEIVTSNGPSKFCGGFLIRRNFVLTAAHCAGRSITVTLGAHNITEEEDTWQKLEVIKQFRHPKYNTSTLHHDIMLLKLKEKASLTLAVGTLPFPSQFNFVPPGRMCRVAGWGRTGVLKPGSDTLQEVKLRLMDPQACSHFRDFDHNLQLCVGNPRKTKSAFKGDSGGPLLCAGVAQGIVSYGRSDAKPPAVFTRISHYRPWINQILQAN

B1: Example 28 (peptide)
peptide: XCTKSDPPICT
HELM: PEPTIDE1{[O=C([C@H](CCc1ccccc1)N[*:1])[*:2]].C.T.K.S.D.P.P.I.C.T.[dP].P}$PEPTIDE1,PEPTIDE1,2:R3-10:R3|PEPTIDE1,PEPTIDE1,1:R1-13:R2$$$V2.0
SMILES: CC[C@H](C)[C@@H]1NC(=O)[C@@H]2CCCN2C(=O)[C@@H]2CCCN2C(=O)[C@H](CC(=O)O)NC(=O)[C@H](CO)NC(=O)[C@H](CCCCN)NC(=O)[C@H]([C@@H](C)O)NC(=O)[C@@H]2CSSC[C@H](NC1=O)C(=O)N[C@@H]([C@@H](C)O)C(=O)N1CCC[C@@H]1C(=O)N1CCC[C@H]1C(=O)N[C@@H](CCc1ccccc1)C(=O)N2
B2: Example 1 (peptide)
peptide: FCTKSEPPICT
HELM: PEPTIDE1{F.C.T.K.S.E.P.P.I.C.T.[dP].P}$PEPTIDE1,PEPTIDE1,2:R3-10:R3|PEPTIDE1,PEPTIDE1,1:R1-13:R2$$$V2.0
SMILES: CC[C@H](C)[C@@H]1NC(=O)[C@@H]2CCCN2C(=O)[C@@H]2CCCN2C(=O)[C@H](CCC(=O)O)NC(=O)[C@H](CO)NC(=O)[C@H](CCCCN)NC(=O)[C@H]([C@@H](C)O)NC(=O)[C@@H]2CSSC[C@H](NC1=O)C(=O)N[C@@H]([C@@H](C)O)C(=O)N1CCC[C@@H]1C(=O)N1CCC[C@H]1C(=O)N[C@@H](Cc1ccccc1)C(=O)N2
B3: Example 26 (peptide)
peptide: YCTKSDPPICY
HELM: PEPTIDE1{Y.C.T.K.S.D.P.P.I.C.Y.[dP].P}$PEPTIDE1,PEPTIDE1,2:R3-10:R3|PEPTIDE1,PEPTIDE1,1:R1-13:R2$$$V2.0
SMILES: CC[C@H](C)[C@@H]1NC(=O)[C@@H]2CCCN2C(=O)[C@@H]2CCCN2C(=O)[C@H](CC(=O)O)NC(=O)[C@H](CO)NC(=O)[C@H](CCCCN)NC(=O)[C@H]([C@@H](C)O)NC(=O)[C@@H]2CSSC[C@H](NC1=O)C(=O)N[C@@H](Cc1ccc(O)cc1)C(=O)N1CCC[C@@H]1C(=O)N1CCC[C@H]1C(=O)N[C@@H](Cc1ccc(O)cc1)C(=O)N2
B4: Example 84 (peptide)
peptide: XCTASXPPQCY
HELM: PEPTIDE1{[Nle].C.T.A.S.[O=C([C@@H](N[*:1])C1CCCCC1)[*:2]].P.P.Q.C.Y.[dP].P}$PEPTIDE1,PEPTIDE1,2:R3-10:R3|PEPTIDE1,PEPTIDE1,1:R1-13:R2$$$V2.0
SMILES: CCCC[C@@H]1NC(=O)[C@@H]2CCCN2C(=O)[C@H]2CCCN2C(=O)[C@H](Cc2ccc(O)cc2)NC(=O)[C@@H]2CSSC[C@H](NC1=O)C(=O)N[C@@H]([C@@H](C)O)C(=O)N[C@@H](C)C(=O)N[C@@H](CO)C(=O)N[C@@H](C1CCCCC1)C(=O)N1CCC[C@H]1C(=O)N1CCC[C@H]1C(=O)N[C@@H](CCC(N)=O)C(=O)N2
B5: Example 3 (peptide)
peptide: FCTKSDPPICN
HELM: PEPTIDE1{F.C.T.K.S.D.P.P.I.C.N.[dP].P}$PEPTIDE1,PEPTIDE1,2:R3-10:R3|PEPTIDE1,PEPTIDE1,1:R1-13:R2$$$V2.0
SMILES: CC[C@H](C)[C@@H]1NC(=O)[C@@H]2CCCN2C(=O)[C@@H]2CCCN2C(=O)[C@H](CC(=O)O)NC(=O)[C@H](CO)NC(=O)[C@H](CCCCN)NC(=O)[C@H]([C@@H](C)O)NC(=O)[C@@H]2CSSC[C@H](NC1=O)C(=O)N[C@@H](CC(N)=O)C(=O)N1CCC[C@@H]1C(=O)N1CCC[C@H]1C(=O)N[C@@H](Cc1ccccc1)C(=O)N2
B6: Example 2 (peptide)
peptide: FCTKSDPPICD
HELM: PEPTIDE1{F.C.T.K.S.D.P.P.I.C.D.[dP].P}$PEPTIDE1,PEPTIDE1,2:R3-10:R3|PEPTIDE1,PEPTIDE1,1:R1-13:R2$$$V2.0
SMILES: CC[C@H](C)[C@@H]1NC(=O)[C@@H]2CCCN2C(=O)[C@@H]2CCCN2C(=O)[C@H](CC(=O)O)NC(=O)[C@H](CO)NC(=O)[C@H](CCCCN)NC(=O)[C@H]([C@@H](C)O)NC(=O)[C@@H]2CSSC[C@H](NC1=O)C(=O)N[C@@H](CC(=O)O)C(=O)N1CCC[C@@H]1C(=O)N1CCC[C@H]1C(=O)N[C@@H](Cc1ccccc1)C(=O)N2
B7: Example 31 (peptide)
peptide: XCTKSDPPICN
HELM: PEPTIDE1{[Nc1ccc(C[C@H](N[*:1])C(=O)[*:2])cc1].C.T.K.S.D.P.P.I.C.N.[dP].P}$PEPTIDE1,PEPTIDE1,2:R3-10:R3|PEPTIDE1,PEPTIDE1,1:R1-13:R2$$$V2.0
SMILES: CC[C@H](C)[C@@H]1NC(=O)[C@@H]2CCCN2C(=O)[C@@H]2CCCN2C(=O)[C@H](CC(=O)O)NC(=O)[C@H](CO)NC(=O)[C@H](CCCCN)NC(=O)[C@H]([C@@H](C)O)NC(=O)[C@@H]2CSSC[C@H](NC1=O)C(=O)N[C@@H](CC(N)=O)C(=O)N1CCC[C@@H]1C(=O)N1CCC[C@H]1C(=O)N[C@@H](Cc1ccc(N)cc1)C(=O)N2

Biological target: T1, CathepsinG, from human neutrophils
Test: cell-based or functional assay

IC50 [nmol]	Binder
39	B1
86	B2
71	cyclo(FCTK[AlloThr]DPPICS[dP]P) (disulfide 2-10) [Example 24]
49	B3
52	cyclo(ICTKSDPAICR[dP]P) (disulfide 2-10) [Example 52]
52	cyclo(ICTKSDPAICR[dP]P) (disulfide 2-10) [Example 14]
20200	B4
51	B5
84	B6
34	B7

Biological target: T2, Elastase from human neutrophils
Test: cell-based or functional assay

IC50 [nmol]	Binder
> 100000	B1
> 100000	B2
> 100000	cyclo(FCTK[AlloThr]DPPICS[dP]P) (disulfide 2-10) [Example 24]
> 100000	B3
> 100000	cyclo(ICTKSDPAICR[dP]P) (disulfide 2-10) [Example 52]
> 100000	cyclo(ICTKSDPAICR[dP]P) (disulfide 2-10) [Example 14]
18	B4
> 100000	B5
> 100000	B6
> 100000	B7

Biological target: Trypsin, Iodination grade, from human pancreas (human, UniProt P07477 24-247)
Test: cell-based or functional assay

% inhibition at 100 µM [%]	Binder
95	B1
92.6	B2
97	cyclo(FCTK[AlloThr]DPPICS[dP]P) (disulfide 2-10) [Example 24]
84	B3
10.8	B4
92	B5
92	B6
98	B7

Biological target: Chymotrypsin, from human pancreas (human, UniProt P17538 19-263)
Sequence (P17538 19-263): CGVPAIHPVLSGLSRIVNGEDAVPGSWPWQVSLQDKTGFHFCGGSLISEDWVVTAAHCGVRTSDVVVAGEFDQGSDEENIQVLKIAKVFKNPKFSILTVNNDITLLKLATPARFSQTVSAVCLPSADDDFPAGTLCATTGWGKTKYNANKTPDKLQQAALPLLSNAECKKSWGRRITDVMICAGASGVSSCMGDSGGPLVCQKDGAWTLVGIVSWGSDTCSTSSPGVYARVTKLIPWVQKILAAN
Test: cell-based or functional assay

% inhibition at 100 µM [%]	Binder
32	B1
7.8	B2
1	cyclo(FCTK[AlloThr]DPPICS[dP]P) (disulfide 2-10) [Example 24]
2.2	B3
0	cyclo(ICTKSDPAICR[dP]P) (disulfide 2-10) [Example 52]
0	cyclo(ICTKSDPAICR[dP]P) (disulfide 2-10) [Example 14]
0	B5
2.9	B6
15	B7

Biological target: T3, Chymase, from human skin
Test: cell-based or functional assay

% inhibition at 100 µM [%]	Binder
0	B1
0	B2
1.2	cyclo(FCTK[AlloThr]DPPICS[dP]P) (disulfide 2-10) [Example 24]
0	B3
42.3	cyclo(ICTKSDPAICR[dP]P) (disulfide 2-10) [Example 52]
42.3	cyclo(ICTKSDPAICR[dP]P) (disulfide 2-10) [Example 14]
0	B4
1	B5
0	B6
12	B7

Biological target: Thrombin, from Human Plasma, high activity (human, UniProt P00734 328-622)
Test: cell-based or functional assay

% inhibition at 100 µM [%]	Binder
12	B1
1.1	B2
3.5	cyclo(FCTK[AlloThr]DPPICS[dP]P) (disulfide 2-10) [Example 24]
3	B3
8.7	cyclo(ICTKSDPAICR[dP]P) (disulfide 2-10) [Example 52]
8.7	cyclo(ICTKSDPAICR[dP]P) (disulfide 2-10) [Example 14]
20.6	B4
0	B5
9.2	B6
10	B7

Biological target: Coagulation Factor Xa, from human plasma (human, UniProt P00742 41-488, limits assumed)
Sequence (P00742 41-488 limits assumed): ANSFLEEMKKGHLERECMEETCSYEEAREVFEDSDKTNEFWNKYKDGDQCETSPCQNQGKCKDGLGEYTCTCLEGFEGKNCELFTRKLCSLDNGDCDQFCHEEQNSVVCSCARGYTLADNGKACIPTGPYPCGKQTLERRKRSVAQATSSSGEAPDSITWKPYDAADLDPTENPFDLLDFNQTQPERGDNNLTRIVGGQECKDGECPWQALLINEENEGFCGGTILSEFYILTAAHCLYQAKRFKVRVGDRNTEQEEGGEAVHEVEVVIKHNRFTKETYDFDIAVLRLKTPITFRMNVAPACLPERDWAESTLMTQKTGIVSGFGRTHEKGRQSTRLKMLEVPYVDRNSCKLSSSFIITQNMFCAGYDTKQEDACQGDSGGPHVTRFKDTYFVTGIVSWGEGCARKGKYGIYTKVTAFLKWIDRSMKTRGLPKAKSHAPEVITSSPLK
Test: cell-based or functional assay

% inhibition at 100 µM [%]	Binder
6	B1
5.7	B2
30	cyclo(FCTK[AlloThr]DPPICS[dP]P) (disulfide 2-10) [Example 24]
6	B3
6	cyclo(ICTKSDPAICR[dP]P) (disulfide 2-10) [Example 52]
6	cyclo(ICTKSDPAICR[dP]P) (disulfide 2-10) [Example 14]
13.3	B4
4	B5
5.3	B6
8	B7

Biological target: Urokinase from human urine (human, UniProt P00749 21-431, limits assumed)
Test: cell-based or functional assay

% inhibition at 100 µM [%]	Binder
1	B1
5.7	B2
5.1	cyclo(FCTK[AlloThr]DPPICS[dP]P) (disulfide 2-10) [Example 24]
3.1	B3
5.4	cyclo(ICTKSDPAICR[dP]P) (disulfide 2-10) [Example 52]
5.4	cyclo(ICTKSDPAICR[dP]P) (disulfide 2-10) [Example 14]
10.4	B4
4	B5
0.9	B6
15	B7

Biological target: Tryptase, from human lung (human, UniProt Q15661 31-275, limits assumed)
Sequence (Q15661 31-275 limits assumed): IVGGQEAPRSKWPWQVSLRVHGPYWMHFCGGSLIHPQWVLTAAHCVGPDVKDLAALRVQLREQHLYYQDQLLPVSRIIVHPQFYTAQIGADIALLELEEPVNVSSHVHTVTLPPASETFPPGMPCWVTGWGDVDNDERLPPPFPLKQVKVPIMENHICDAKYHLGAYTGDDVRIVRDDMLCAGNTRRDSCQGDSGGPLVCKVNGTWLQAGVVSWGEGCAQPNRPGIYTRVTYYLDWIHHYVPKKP
Test: cell-based or functional assay

% inhibition at 100 µM [%]	Binder
0	B1
0	B2
0	cyclo(FCTK[AlloThr]DPPICS[dP]P) (disulfide 2-10) [Example 24]
66.4	B3
84.2	cyclo(ICTKSDPAICR[dP]P) (disulfide 2-10) [Example 52]
84.2	cyclo(ICTKSDPAICR[dP]P) (disulfide 2-10) [Example 14]
4.2	B4
68	B5
39.6	B6
76	B7
